{"source": "patent US20130190246A1", "about": "(PURDUE RESEARCH FOUNDATION, published 2013)", "binders": {"B1": {"name": "Dansyl-GRRANAALKAGELYKSILYGC (Z-SILY) (peptide)", "peptide": "Dansyl-GRRANAALKAGELYKSILYGC", "notes": "Fluorescently labelled version of SILY; also called dansyl-modified peptide SILY"}}, "key": {"[1]": {"target": "collagen (type and supplier not stated; Examples 11 and 12)", "test": "fluorescence plate assay, collagen-coated wells, binding curve from the data of FIG. 4", "protocol": "(§1) Binding assays were done in a 96-well high-binding plate, black with a clear bottom (Costar). Collagen was compared to untreated wells and BSA coated wells. Collagen and BSA were immobilized at 37° C. for 1 hr by incubating 90 μL/well at concentrations of 2 mg/mL in 10 mM HCl and 1×PBS, respectively. Each well was washed 3× with 1×PBS after incubating. Z-SILY was dissolved in 1×PBS at concentrations from 100 μM to 10 nM in 10-fold dilutions. Wells were incubated for 30 min at 37° C. and rinsed 3× with PBS and then filled with 90 μL of 1×PBS. Fluorescence readings were taken on an M5 Spectramax Spectrophotometer (Molecular Devices) at excitation/emission wavelengths of 335 nm/490 nm respectively."}, "[2]": {"target": "collagen (type and supplier not stated; Examples 11 and 12)", "test": "fluorescence plate binding assay, dansyl label, collagen coated on 96-well plate", "protocol": "as §1"}}, "note": "Where no end group is shown, it is not given here. The star is where a group is joined. Dansyl = CN(C)c1cccc2c(S(=O)(=O)*)cccc12"}
{"binder": "B1", "values": [{"measurement": "EC50 (read off the curve)", "setting": "[1]", "result": "~0.9", "unit": "µM"}, {"measurement": "Kd", "setting": "[2]", "result": 0.86, "unit": "µM"}]}
